Test results as given in US20030027152, “Generation of diagnostic tools to assay the human LHX3/P-LIM/LIM-3 factor” (Indiana University Advanced Research and Technology …, published 2003).

How the values were obtained:
GST-ΔLIM pLhx3 [1] = biological target: T1, GST-ΔLIM pLhx3 (Sus scrofa, UniProt O97581 SEQ:134-383); assay: EMSA; affinity relative to full-length GST-pLhx3 (LIM deletion); competed by unlabeled wild type; conditions: tags: N-terminal GST (pGEX-KT); label: radiolabel
T1 chain: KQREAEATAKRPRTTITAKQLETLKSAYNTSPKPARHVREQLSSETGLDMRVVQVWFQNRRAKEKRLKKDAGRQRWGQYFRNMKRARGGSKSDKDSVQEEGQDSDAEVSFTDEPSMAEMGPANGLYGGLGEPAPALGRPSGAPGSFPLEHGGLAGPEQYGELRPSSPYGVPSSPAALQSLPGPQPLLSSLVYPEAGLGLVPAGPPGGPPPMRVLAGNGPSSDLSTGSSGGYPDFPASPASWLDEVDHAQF
Method: (§1) FIG. 4B is an image depicting an analysis of recombinant porcine pLhx3 protein binding to DNA target sequences. The image depicts electrophoretic mobility shift assay using labeled wild type and mutant oligonucleotides representing the −351 to −324 bp region of the porcine αGSU gene promoter. Probes were incubated with the indicated proteins and competitor DNA and the resulting complexes were separated from free probe (F) by electrophoresis. The panel on the right of the figure was exposed three times as long as the left-hand panel to detect weak binding of GST-pLhx3 to the porcine αGSU binding site (which is indicated by an arrow).

GST [2] = biological target: T2, GST (UniProt P08515 P08515:1-218); assay: EMSA; GST negative control; conditions: tags: GST alone, pGEX-KT; label: radiolabel
Method: as §1

GST-ΔLIM pLhx3 [3] = biological target: T1, GST-ΔLIM pLhx3; assay: competition; 200 ng unlabeled mutant did not compete; conditions: tags: N-terminal GST (pGEX-KT)
Method: as §1

hLhx3a-myc = biological target: T3, hLhx3a-myc (Homo sapiens, UniProt Q9UBR4 SEQ:1-397); assay: EMSA; similar to untagged; more effective than hLhx3b-myc; conditions: tags: C-terminal myc (pcDNA3.1/Myc-His); label: radiolabel
T3 sequence: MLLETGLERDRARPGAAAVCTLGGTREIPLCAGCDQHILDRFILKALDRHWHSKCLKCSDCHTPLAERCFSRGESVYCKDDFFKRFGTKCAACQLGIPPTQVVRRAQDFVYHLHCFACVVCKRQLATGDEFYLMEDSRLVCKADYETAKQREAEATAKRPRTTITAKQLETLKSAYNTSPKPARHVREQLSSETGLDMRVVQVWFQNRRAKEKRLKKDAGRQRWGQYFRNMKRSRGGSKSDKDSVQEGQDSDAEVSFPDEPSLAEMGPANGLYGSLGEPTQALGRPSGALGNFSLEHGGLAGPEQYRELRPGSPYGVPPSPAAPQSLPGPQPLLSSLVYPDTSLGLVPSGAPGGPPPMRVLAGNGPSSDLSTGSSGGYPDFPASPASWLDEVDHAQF
Method: (§2) Radiolabeled probes were incubated with the indicated proteins and competitor DNAs and the resulting complexes were separated from free probe (F) by electrophoresis. Lane 1, unprogrammed rabbit reticulocyte lysate as a negative control (lysate); lanes 2-5 (hLhx3a; hLhx3b; hLhx3a-myc; and hLhx36-myc, respectively), reactions contained in vitro translated hLhx3 proteins including isoforms comprising a myc tag epitope. A nonspecific band is noted by an asterisk (*). Human Lhx3 protein/DNA complexes are indicated by an arrow. Lane 6 depicts the lack of binding using GST as a negative control; lanes 7-14 (GST-hLhx3a, more GST-hLhx3a, comp plus hLhx3a, GST-hLhx3b; more GST-hLhx3b, comp plus hLhx3b, GST-hLhx3a, and GST-hLhx36, respectively) depict binding of the DNA probe by recombinant hLhx3 proteins expressed in E. coli. “Comp” denotes reactions containing approximately 1000-fold molar excess of unlabeled binding site as a competitor.
(§3) Without wishing to be bound by any particular theory, mechanisms for the different activities include the possibilities that the a-specific and b-specific domains are trans-activation or trans-repression domains, respectively, or that the a- and b-specific domains mediate interaction with distinct regulatory factors, or that the a- and b-specific domains modulate the DNA binding properties of hLhx3 differently. […]

GST [4] = biological target: T2, GST; assay: EMSA; GST negative control; conditions: tags: GST alone, pGEX-KT; label: radiolabel; remark: listed apart in the source
Method: (§4) FIG. 18B is an image of a gel depicting an electrophoretic mobility shift assay (EMSA) using Lhx3 consensus binding site (lanes 1-12) or αGSU gene −350 to −323 binding site (lanes 13 and 14) as oligonucleotide probes. Radiolabeled probes were incubated with the indicated proteins and competitor DNAs and the resulting complexes were separated from free probe (F) by electrophoresis. Lane 1, unprogrammed rabbit reticulocyte lysate as a negative control (lysate); lanes 2-5 (hLhx3a; hLhx3b; hLhx3a-myc; and hLhx36-myc, respectively), reactions contained in vitro translated hLhx3 proteins including isoforms comprising a myc tag epitope. A nonspecific band is noted by an asterisk (*). Human Lhx3 protein/DNA complexes are indicated by an arrow. Lane 6 depicts the lack of binding using GST as a negative control; lanes 7-14 (GST-hLhx3a, more GST-hLhx3a, comp plus hLhx3a, GST-hLhx3b; more GST-hLhx3b, comp plus hLhx3b, GST-hLhx3a, and GST-hLhx36, respectively) depict binding of the DNA probe by recombinant hLhx3 proteins expressed in E. coli. “Comp” denotes reactions containing approximately 1000-fold molar excess of unlabeled binding site as a competitor.

GST-hLhx3a [5] = biological target: T4, GST-hLhx3a (Homo sapiens, UniProt Q9UBR4 SEQ:1-397); assay: EMSA; reduced by 1000-fold unlabeled competitor; conditions: tags: N-terminal GST (pGEX-KT); label: radiolabel
T4 sequence: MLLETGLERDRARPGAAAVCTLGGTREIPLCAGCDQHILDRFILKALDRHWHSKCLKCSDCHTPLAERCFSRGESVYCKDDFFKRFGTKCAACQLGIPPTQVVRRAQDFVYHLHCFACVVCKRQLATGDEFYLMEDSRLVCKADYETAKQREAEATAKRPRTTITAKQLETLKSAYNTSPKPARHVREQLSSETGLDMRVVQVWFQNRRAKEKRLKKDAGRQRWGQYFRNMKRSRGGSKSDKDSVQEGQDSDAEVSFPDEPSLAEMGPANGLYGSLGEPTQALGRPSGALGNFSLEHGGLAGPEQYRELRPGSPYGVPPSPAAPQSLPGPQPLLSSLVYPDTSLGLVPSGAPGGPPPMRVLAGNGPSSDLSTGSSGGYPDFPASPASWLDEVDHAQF
Method: as §4

hLhx3a [6] = biological target: T5, hLhx3a (Homo sapiens, UniProt Q9UBR4 SEQ:1-397); assay: EMSA; binds more effectively than hLhx3b; conditions: label: radiolabel
T5 sequence: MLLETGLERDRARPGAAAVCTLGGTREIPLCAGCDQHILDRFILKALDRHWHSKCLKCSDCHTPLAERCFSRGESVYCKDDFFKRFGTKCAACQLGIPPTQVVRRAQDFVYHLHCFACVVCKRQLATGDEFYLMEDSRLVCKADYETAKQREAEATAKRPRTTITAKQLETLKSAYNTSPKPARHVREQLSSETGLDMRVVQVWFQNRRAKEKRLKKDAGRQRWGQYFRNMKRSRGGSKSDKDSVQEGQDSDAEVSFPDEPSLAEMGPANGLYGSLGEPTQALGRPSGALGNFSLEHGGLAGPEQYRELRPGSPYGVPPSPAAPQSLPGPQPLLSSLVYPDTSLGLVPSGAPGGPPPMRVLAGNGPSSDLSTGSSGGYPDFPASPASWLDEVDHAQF
Method: as §2, §3

GST-hLhx3a [7] = biological target: T4, GST-hLhx3a; assay: EMSA; binds more effectively than GST-hLhx3b; conditions: tags: N-terminal GST (pGEX-KT); label: radiolabel
Method: as §4

hLhx3a [8] = biological target: T5, hLhx3a; assay: EMSA; in vitro translated; text states more effective than hLhx3b at both sites; conditions: label: radiolabel
Method: as §2, §3

T2 sequence (P08515 whole entry, one chain of several): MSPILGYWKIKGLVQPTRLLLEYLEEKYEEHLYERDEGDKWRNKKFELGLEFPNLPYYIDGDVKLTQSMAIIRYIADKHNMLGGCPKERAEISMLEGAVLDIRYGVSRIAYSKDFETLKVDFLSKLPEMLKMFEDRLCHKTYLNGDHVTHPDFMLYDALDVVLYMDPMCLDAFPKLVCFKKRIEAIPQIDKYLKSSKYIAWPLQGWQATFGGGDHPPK

B1: porcine αGSU -351/-324 wild type (dsDNA)
DNA 1: ACATTAGGTACTTAGCTAATTAAATGTG
DNA 2: CACATTTAATTAGCTAAGTACCTAATGT
binding signal (GST-ΔLIM pLhx3 [1]): ≥ 15 fold
binding result (GST [2]): no binding

B2: porcine αGSU -351/-324 mutant (dsDNA)
DNA 1: ACATTAGGTACTTGGCGCGCCAAATGTG
DNA 2: CACATTTGGCGCGCCAAGTACCTAATGT
binding result (GST-ΔLIM pLhx3 [3]): no binding

B3: Lhx3 consensus binding site (dsDNA)
DNA 1: CAGAAAATTAATTAATTGTAA
DNA 2: TTACAATTAATTAATTTTCTG
binding result (hLhx3a-myc): binds
binding result (GST [4]): no binding
binding result (GST-hLhx3a [5]): binds
binding result (hLhx3a [6]): binds

B4: αGSU -350/-323 (PGBE) (dsDNA)
DNA 1: ACATTAGGTACTTAGCTAATTAAATGTG
DNA 2: CACATTTAATTAGCTAAGTACCTAATGT
binding result (GST-hLhx3a [7]): binds
binding result (hLhx3a [8]): binds
